Patent publication US20160213760A1

Biological target: human epidermal growth factor 2 (HER2)/neu receptor (human) (UniProt P04626)
Experiment: cell-based or functional assay

IC50 of BT-474 cell proliferation (tritiated thymidine incorporation after 5-day treatment): 3.16 nM
Substance: protein conjugate H43 (ANG4043; trastuzumab conjugated to Angiopep-2) (antibody)
